The target of this assay is Pea2p-L409-ProA (pea2-M409L; S288C-encoded Pea2p variant in the Σ1278b background) (S. cerevisiae (S288C allele recreated in strain Σ1278b)) (UniProt P40091). Nature of the assay: co-IP; IgG pull-down with Pea2p-ProA as bait from lysates of Σ1278b cells; HA-Spa2p from a copper-inducible plasmid; lysis buffer 50 mM Tris-HCl pH 7.5, 150 mM NaCl, 2 mM EDTA, 0.5% Triton X-100; 2 hr at 4°C; Western blot (anti-HA, anti-Protein A); levels normalized against total cell lysate. In general terms: Immunoblotting shows a protein as a band on a membrane.
Chain of UniProt P40091 (P40091 whole entry, stated change not applied): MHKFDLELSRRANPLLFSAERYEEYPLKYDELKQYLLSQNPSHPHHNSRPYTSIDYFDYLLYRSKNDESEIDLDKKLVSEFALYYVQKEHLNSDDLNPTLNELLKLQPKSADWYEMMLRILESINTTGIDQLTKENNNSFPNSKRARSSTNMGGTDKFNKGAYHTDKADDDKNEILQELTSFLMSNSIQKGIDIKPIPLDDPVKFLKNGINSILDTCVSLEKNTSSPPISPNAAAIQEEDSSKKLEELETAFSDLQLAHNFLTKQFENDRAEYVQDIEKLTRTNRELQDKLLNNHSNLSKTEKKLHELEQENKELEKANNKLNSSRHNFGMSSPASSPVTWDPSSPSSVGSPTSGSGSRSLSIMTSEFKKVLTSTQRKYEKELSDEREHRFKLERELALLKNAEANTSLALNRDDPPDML

Chain of HA-Spa2p (P23201 whole entry): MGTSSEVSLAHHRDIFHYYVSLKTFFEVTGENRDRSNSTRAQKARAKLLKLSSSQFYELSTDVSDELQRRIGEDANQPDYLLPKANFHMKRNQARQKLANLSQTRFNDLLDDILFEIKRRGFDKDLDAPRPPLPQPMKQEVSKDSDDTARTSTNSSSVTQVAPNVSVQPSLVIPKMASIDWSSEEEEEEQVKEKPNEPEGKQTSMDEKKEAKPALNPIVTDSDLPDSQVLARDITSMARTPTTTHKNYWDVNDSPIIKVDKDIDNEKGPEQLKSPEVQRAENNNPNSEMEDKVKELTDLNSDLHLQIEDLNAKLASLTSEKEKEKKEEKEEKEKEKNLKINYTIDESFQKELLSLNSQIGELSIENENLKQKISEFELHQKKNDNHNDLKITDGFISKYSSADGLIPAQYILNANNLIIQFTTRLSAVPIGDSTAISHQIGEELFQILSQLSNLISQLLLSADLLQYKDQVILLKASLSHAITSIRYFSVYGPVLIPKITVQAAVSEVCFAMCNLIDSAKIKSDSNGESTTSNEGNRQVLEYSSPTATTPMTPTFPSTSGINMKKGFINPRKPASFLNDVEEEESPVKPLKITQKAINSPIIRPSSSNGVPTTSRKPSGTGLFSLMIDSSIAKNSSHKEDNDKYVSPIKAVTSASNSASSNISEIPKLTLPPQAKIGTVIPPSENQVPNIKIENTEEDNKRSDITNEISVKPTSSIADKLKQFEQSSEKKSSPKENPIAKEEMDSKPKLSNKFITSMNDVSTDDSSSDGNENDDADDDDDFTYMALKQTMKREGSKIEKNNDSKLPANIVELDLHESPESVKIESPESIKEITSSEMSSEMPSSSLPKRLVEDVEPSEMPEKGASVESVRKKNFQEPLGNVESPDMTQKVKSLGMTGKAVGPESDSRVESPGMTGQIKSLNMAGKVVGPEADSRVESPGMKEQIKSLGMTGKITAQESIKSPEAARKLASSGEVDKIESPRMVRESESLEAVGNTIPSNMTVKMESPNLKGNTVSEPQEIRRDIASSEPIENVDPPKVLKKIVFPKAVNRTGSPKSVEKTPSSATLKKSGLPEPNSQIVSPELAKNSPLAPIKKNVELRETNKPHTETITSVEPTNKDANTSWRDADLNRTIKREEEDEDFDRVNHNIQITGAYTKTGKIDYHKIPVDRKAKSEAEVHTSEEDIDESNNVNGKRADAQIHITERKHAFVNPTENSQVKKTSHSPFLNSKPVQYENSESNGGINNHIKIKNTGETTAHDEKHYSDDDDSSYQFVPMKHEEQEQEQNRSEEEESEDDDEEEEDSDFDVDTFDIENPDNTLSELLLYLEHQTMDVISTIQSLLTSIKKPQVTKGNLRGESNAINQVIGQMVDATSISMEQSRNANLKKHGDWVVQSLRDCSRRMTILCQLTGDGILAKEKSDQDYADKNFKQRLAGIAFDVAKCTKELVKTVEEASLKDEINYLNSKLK

In the case of “HA-Spa2p (from UniProt P23201 1-1466) (natural protein)”, the amount of Spa2p recovered relative to Pea2p-M409 was 60%.

These data come from article PMC4140661.
